Experiment [1] deals with gp140UG37 (subtype A), gp140 envelope glycoprotein from the HIV-1 group M A-clade isolate 92UG037 (HIV-1). The experiment is described as follows: binding of VHH to gp140 92UG (method not given).
Experiment [2] has as its target gp140CN54 (subtype B'/C), gp140 envelope glycoprotein from the HIV-1 group M CRF07-B/C-clade isolate 97CN54 (HIV-1). The experiment is described as follows: binding of VHH to gp140 CN54 (method not given).
The target in experiment [3] is gp140UG37 (subtype A), gp140 envelope glycoprotein from the HIV-1 group M A-clade isolate 92UG037 (HIV-1). The experiment is described as follows: binding of purified VHH to gp140 92UG (method not given).
In experiment [4] the target is gp140CN54 (subtype B'/C), gp140 envelope glycoprotein from the HIV-1 group M CRF07-B/C-clade isolate 97CN54 (HIV-1). As to the kind of experiment: binding of purified VHH to gp140 CN54 (method not given).
The target of experiment [5] is gp120Yu-2 109-428 (HIV-1). The experiment is described as follows: competition ELISA on coated gp120Yu-2 109-428; periplasmic VHH first, then competitor sCD4 detected. On the technique in general: In an ELISA, binding on a coated surface is turned into a signal by an enzyme label.
Experiment [6] has as its target gp120Yu-2 109-428 (HIV-1). The experiment is described as follows: competition ELISA on coated gp120Yu-2 109-428; periplasmic VHH first, then competitor b12 detected.
The target of experiment [7] is gp120Yu-2 109-428 (HIV-1). The experiment is described as follows: competition ELISA on coated gp120Yu-2 109-428; periplasmic VHH first, then competitor 17b detected.

For 19 molecules, K50 (50% binding concentration), K50 (50% binding concentration; column head reads KD) and signal as percent of the signal of the control results are on record in patent US20150158934A1.

B1: J3_CDR2_fill_1 (site directed mutagenesis) (VHH)
VHH: EVQLVESGGGLVQAGGFLRLSCELRGSIFNQYAMAWFRQAPGKEREFVAGMSGAVPHYGEFVKGRFTISRDNAKSTVYLQMSSLKPEDTAIYFCARSKSTYISYNSNGYDYWGRGTQVTVSS
As for B1, the K50 (50% binding concentration) was over 10 µg/mL in experiment [1] and over 100 µg/mL in experiment [2].

B2: J3_CDR2_fill_2 (site directed mutagenesis) (VHH)
VHH: EVQLVESGGGLVQAGGFLRLSCELRGSIFNQYAMAWFRQAPGKEREFVAGMSWGAVPHYGEFVKGRFTISRDNAKSTVYLQMSSLKPEDTAIYFCARSKSTYISYNSNGYDYWGRGTQVTVSS
Regarding B2, the K50 (50% binding concentration) was over 10 µg/mL in experiment [1] and over 100 µg/mL in experiment [2].

B3: L8Cj3 Mutant 2 (VHH)
VHH: EVQLVESGGGLVQAGGFLRLSCELRGSIFSQYAMAWFRQAPGKEREFVAGMGAVPHYGEFVKGRFTISRDNAKSTVYLQMSSLKPEDTAIYFCARSKSTYISYNSNGYDYWGRGTQVTVSS
Regarding B3, the K50 (50% binding concentration; column head reads KD) in experiment [3] was determined as 0.04 µg/mL; in experiment [4], 0.18 µg/mL.

B4: L8Cj3 Mutant 4 (VHH)
VHH: EVQLVESGGGLVQAGGFLRLSCELRGSIFNQYAMAWFRQAPGKEREFVAGMGAVPHYADSVKGRFTISRDNAKSTVYLQMSSLKPEDTAIYFCARSKSTYISYNSNGYDYWGRGTQVTVSS
With B4, the K50 (50% binding concentration; column head reads KD) in experiment [3] is 0.025 µg/mL; in experiment [4], 1.84 µg/mL.

B5: L8Cj3 Mutant 9 (VHH)
VHH: EVQLVESGGGLVQAGGFLRLSCELRGSIFNQYAMAWFRQAPGKEREFVAGMGAVPHYGEFVKGRFTISRDNAKSTVYLQMSSLKPEDTAIYFCARSKSTYISYASNGYDYWGRGTQVTVSS
B5: the K50 (50% binding concentration; column head reads KD) in experiment [3] worked out at 0.022 µg/mL; in experiment [4], 0.14 µg/mL.

B6: L8Cj3 Mutant 12 (VHH)
VHH: EVQLVESGGGLVQAGGFLRLSCIYRGSIFNQYAMAWFRQAPGKEREFVAGMGAVPHYGEFVKGRFTISRDNAKSTVYLQMSSLKPEDTAIYFCARSKSTYISYNSNGYDYWGRGTQVTVSS
For the molecule B6, the K50 (50% binding concentration; column head reads KD) in experiment [3] was 0.042 µg/mL; in experiment [4] it was over 100 µg/mL.

B7: L8Cj3 Mutant 8 (VHH)
VHH: EVQLVESGGGLVQAGGFLRLSCELRGSIFNQYAMAWFRQAPGKEREFVAGMGAVPHYGEFVKGRFTISRDNAKSTVYLQMSSLKPEDTAIYFCARSKNTYISYNSNGYDYWGRGTQVTVSS
For B7, the K50 (50% binding concentration; column head reads KD) came to 0.02 µg/mL in experiment [3] and 0.36 µg/mL in experiment [4].

B8: L8Cj3 Mutant 5 (VHH)
VHH: EVQLVESGGGLVQAGGFLRLSCELRGSIFNQYAMAWFRQAPGKEREFVAGMGAVPHYGEFVKGRFTISRDNAKSTVYLQMSSLKPEDTAVYFCARSKSTYISYNSNGYDYWGRGTQVTVSS
Take B8: the figures for the K50 (50% binding concentration; column head reads KD) in experiment [3] and in experiment [4] were 0.028 µg/mL and 1.07 µg/mL, respectively.

B9: L8Cj3 Mutant 6 (VHH)
VHH: EVQLVESGGGLVQAGGFLRLSCELRGSIFNQYAMAWFRQAPGKEREFVAGMGAVPHYGEFVKGRFTISRDNAKSTVYLQMSSLKPEDTAIYYCARSKSTYISYNSNGYDYWGRGTQVTVSS
On to B9, for which the results for the K50 (50% binding concentration; column head reads KD) in experiment [3] and in experiment [4] were 0.024 µg/mL and 0.25 µg/mL, respectively.

B10: L8Cj3 Mutant 10 (VHH)
VHH: EVQLVESGGGLVQAGGFLRLSCELRGSIFNQYAMAWFRQAPGKEREFVAGMGAVPHYGEFVKGRFTISRDNAKSTVYLQMSSLKPEDTAIYFCARSKSTYISYNSNEYDYWGRGTQVTVSS
As for B10, the K50 (50% binding concentration; column head reads KD) in experiment [3] was 0.086 µg/mL; in experiment [4], 12.1 µg/mL.

B11: L8Cj3 Mutant 13 (VHH)
VHH: EVQLVESGGGLVQAGGFLRLSCELRGRTFNQYAMAWFRQAPGKEREFVAGMGAVPHYGEFVKGRFTISRDNAKSTVYLQMSSLKPEDTAIYFCARSKSTYISYNSNGYDYWGRGTQVTVSS
With B11, the K50 (50% binding concentration; column head reads KD) in experiment [3] was 0.027 µg/mL; in experiment [4], over 100 µg/mL.

B12: L8Cj3 Mutant 1 (VHH)
VHH: EVQLVESGGGLVQAGGFLRLSCAASGSIFNQYAMAWFRQAPGKEREFVAGMGAVPHYGEFVKGRFTISRDNAKSTVYLQMSSLKPEDTAIYFCARSKSTYISYNSNGYDYWGRGTQVTVSS
B12: the values for the K50 (50% binding concentration; column head reads KD) in experiment [3] and in experiment [4] were 0.058 µg/mL and 67.8 µg/mL, respectively.

B13: L8i5 (VHH)
VHH: EVQLVESGGGLVQAGGFLRLSCEPRGSIFNQYAMAWFRQAPGKEREFVAGMGAVAHYGEFVKGRFTISRDNAKNTAYLQMNSLKPEDTAIYFCARSKSTYISYNSNGYDYWGRGTQVTVSS
Turning to B13, the K50 (50% binding concentration; column head reads KD) in experiment [3] came out at 0.048 µg/mL; in experiment [4] it was 8.54 µg/mL.

B14: L8Cj3 Mutant 7 (VHH)
VHH: EVQLVESGGGLVQAGGFLRLSCELRGSIFNQYAMAWFRQAPGKEREFVAGMGAVPHYGEFVKGRFTISRDNAKSTVYLQMSSLKPEDTAIYFCAASKSTYISYNSNGYDYWGRGTQVTVSS
In the case of B14, the results for the K50 (50% binding concentration; column head reads KD) in experiment [3] and in experiment [4] were 0.95 µg/mL and over 100 µg/mL, respectively.

B15: L8Cj3 Mutant 11 (VHH)
VHH: EVQLVESGGGLVQAGGFLRLSCELRGSIFNQYAMAWFRQAPGKEREFVAGMGAVPHYGEFVKGRFTISRDNAKSTVYLQMSSLKPEDTAIYFCARSKSTYISYNSNGYDYWGQGTQVTVSS
Take B15: the K50 (50% binding concentration; column head reads KD) is 0.019 µg/mL in experiment [3] and 9.26 µg/mL in experiment [4].

B16: 3E3mod-long-CDR2 (VHH)
VHH: QVQLQESGGGLVQAGGSLRLSCAASQFTLESYAIGWFRQAPGKDSEGVACISSSDGSTYYADSVKGRFTISRDNAKNTVYLQMNSLKPEDTAVYHCATSGAGSYCTLRAFGSWGQGTQVTVSS
In experiment [1], B16 showed a K50 (50% binding concentration) of over 10 µg/mL.

B17: L93E3 (VHH)
VHH: EVQLVESGGGLVQPGGSLRLSCAASQFTLESYAIGWFRQAPGKDSEGVACISSSTYYADSVKGRFTISRDNAKNTVYLQMESLKPEDTAVYHCATSGAGSYCTLRAFGSWGQGTQVTVSS
In turn, B17 gave a signal as percent of the signal of the control in experiment [5] of under 30%.

B18: L81H9 (VHH)
VHH: EVQLVESGGGLVQAGGSLRLSCVCSGFSSDEYAIGWFRQAPGKEREGVSYISREDGSRHYADSVKGRFTISTDYARNTVYLQMDSLKPEDTGVYYCAAALLGDYVLWLPEYPYNYWGQGTQVTVSS
Take B18: the signal as percent of the signal of the control in experiment [6] is under 30%.

B19: L1719E1 (VHH)
VHH: EVQLVESGGGLVRHGDSLRLSCLVSGRTTSVYATGWFRQAPGKEREFVAAISWSGGYTNYADSVKGRFTISRDNAKNTVFLQMNSLKPEDTAVYYCAADRNPYRGSNNANAYDYWGQGTQVTVSS
Turning to B19, the signal as percent of the signal of the control in experiment [7] was under 30%.
